In general, stoichiometry N refers to the number of molecules, sites or subunits per partner or assembly.

Series [1] concerns the molecule itself. As to the kind of experiment: SEC; analytical gel filtration on Superose 6 10/300 GL, 100 μl of dilution series injected (RBD 1.5-17.5 μM, ∆N 4.5-35 μM, SARAH 1.5-80 μM), 25 mM HEPES pH 7.4, 300 mM NaCl; MBP-tagged constructs; dimer to monomers. On the technique in general: In gel filtration, larger molecules generally elute earlier.
Series [2] deals with T1, Aurora A kinase domain (residues 107–403) (human, UniProt O14965 107-403).
T1 construct: Aurora A kinase, human, kinase domain only, residues 107-403
T1 sequence (looked up): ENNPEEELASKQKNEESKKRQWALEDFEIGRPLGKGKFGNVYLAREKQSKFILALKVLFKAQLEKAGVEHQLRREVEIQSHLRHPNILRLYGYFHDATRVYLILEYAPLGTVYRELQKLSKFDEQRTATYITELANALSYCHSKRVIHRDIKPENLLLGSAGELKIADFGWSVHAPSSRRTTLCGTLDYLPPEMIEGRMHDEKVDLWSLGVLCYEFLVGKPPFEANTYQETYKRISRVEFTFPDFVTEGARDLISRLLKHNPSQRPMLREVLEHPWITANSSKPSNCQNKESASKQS
As to the kind of experiment: SPR; Biacore X; Aurora A kinase domain immobilised on a CM5 chip, RASSF1A variants as analytes; HBS-EP (10 mM HEPES pH 7.4, 150 mM NaCl, 3 mM EDTA, 0.005% Tween-20), 25 °C; equilibria not reached because of irreversible aggregation on the surface. The following applies: both partners purified.

Series [3] addresses T2, Aurora A kinase domain (residues 107–403) (human) (UniProt O14965).
T2 sequence: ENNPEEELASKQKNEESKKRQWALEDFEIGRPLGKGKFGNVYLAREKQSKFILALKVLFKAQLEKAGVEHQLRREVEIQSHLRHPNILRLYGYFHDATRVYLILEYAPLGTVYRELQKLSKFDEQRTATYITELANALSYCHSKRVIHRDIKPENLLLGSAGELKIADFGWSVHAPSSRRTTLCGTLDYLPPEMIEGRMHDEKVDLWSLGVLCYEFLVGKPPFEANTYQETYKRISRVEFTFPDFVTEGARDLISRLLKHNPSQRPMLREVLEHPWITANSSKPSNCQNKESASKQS

B1: RASSF1A ∆N (residues 121–340) (domain or fragment, UniProt Q9NS23-2 121-340, looked up)
chain: EPVEWETPDLSQAEIEQKIKEYNAQINSNLFMSLNKDGSYTGFIKVQLKLVRPVSVPSSKKPPSLQDARRGPGRGTSVRRRTSFYLPKDAVKHLHVLSRTRAREVIEALLRKFLVVDDPRKFALFERAERHGQVYLRKLLDDEQPLRLRLLAGPSDKALSFVLKENDSGEVNWDAFSMPELHNFLRILQREEEEHLRQILQKYSYCRQKIQEALHACPLG
notes: Ras-association domain family 1 isoform A (RASSF1A), 340 residues, residues 121-340 (RBD plus SARAH domain); numbers count on: isoform A; 69 kDa with the MBP tag; Monomer-dimer equilibrium by SEC; also called ΔN; ΔN fragment; not shown: MBP, N-terminal, kept
With B1, the “stoichiometry N” value in series [1] stood at 2.

B2: SARAH domain of RASSF1A (residues 291–340) (domain or fragment, UniProt Q9NS23-2 291-340, looked up)
chain: VNWDAFSMPELHNFLRILQREEEEHLRQILQKYSYCRQKIQEALHACPLG
notes: Ras-association domain family 1 isoform A (RASSF1A), residues 291-340 (SARAH domain); numbers count on: isoform A; 51 kDa with the MBP tag; Monomer-dimer equilibrium by SEC; also called isolated SARAH domain; SARAH domain construct; not shown: MBP, N-terminal, kept
With B2, the “stoichiometry N” value in series [1] is 2. Besides, the binding result in series [2] is “binds”.

B3: RASSF1A ∆N-∆loop (residues 121–340 lacking the loop 177–197) (domain or fragment)
chain: EPVEWETPDLSQAEIEQKIKEYNAQINSNLFMSLNKDGSYTGFIKVQLKLVRPVSVVRRRTSFYLPKDAVKHLHVLSRTRAREVIEALLRKFLVVDDPRKFALFERAERHGQVYLRKLLDDEQPLRLRLLAGPSDKALSFVLKENDSGEVNWDAFSMPELHNFLRILQREEEEHLRQILQKYSYCRQKIQEALHACPLG
Consider B3, for which the Km of phosphorylation of ∆N-∆loop by Aurora A kinase domain (40 nM), 32P incorporation in series [3] came to 10 µM.

The record behind these values is paper PMC6447619, “New type of interaction between the SARAH domain of the tumour suppressor RASSF1A and its mitotic kinase Aurora A” (Scientific Reports, 2019).
